In the series the test system is Escherichia coli TOP10. Put plainly: shrunken log2 fold change of peptide-encoding DNA abundance (4.5 h post-induction vs induction); higher = less antimicrobial activity (less host growth inhibition). The note with it: time post-induction: 4.5 h; library: site-saturation at positions 5, 18, 19, 20.

The results in this text go back to the supplement of paper PMC9112550, “Optimization of the antimicrobial peptide Bac7 by deep mutational scanning” (BMC Biology, 2022).
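Also: peptides expressed intracellularly from a pBAD plasmid library in pooled LB shake-flask culture, induced with 0.3% L-arabinose, DNA abundance read by NGS, three biological replicates, DESeq2 with apeglm shrinkage.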

RRIRQRPPRLPRPRPRPTQHPRP: the “shrunken log2 fold change” value was 0.195.

As for RRIRGRPPRLPRPRPRPYWKPRP, the “shrunken log2 fold change” value was -0.0176.

Consider RRIRHRPPRLPRPRPRPHNWPRP, for which the “shrunken log2 fold change” value is -0.214.

Regarding RRIRCRPPRLPRPRPRPPVMPRP, the “shrunken log2 fold change” value is 0.298.

In the case of RRIRGRPPRLPRPRPRPNSRPRP, the “shrunken log2 fold change” value worked out at 0.107.

For the sequence RRIRSRPPRLPRPRPRPAFYPRP, the “shrunken log2 fold change” value is -0.166.

For RRIRVRPPRLPRPRPRPVLIPRP, the “shrunken log2 fold change” value is -0.186.

Turning to RRIRYRPPRLPRPRPRPSDHPRP, the “shrunken log2 fold change” value is -0.42.

As for RRIRPRPPRLPRPRPRPGMFPRP, the “shrunken log2 fold change” value is -0.0259.

As for RRIRPRPPRLPRPRPRPSQKPRP, the “shrunken log2 fold change” value amounted to 0.188.

As for RRIRFRPPRLPRPRPRPSAAPRP, the “shrunken log2 fold change” value worked out at 0.346.

Take RRIRIRPPRLPRPRPRPNEDPRP: the “shrunken log2 fold change” value is -0.488.

As for RRIRFRPPRLPRPRPRPIYVPRP, the “shrunken log2 fold change” value is -0.871.

For RRIRNRPPRLPRPRPRPPNHPRP, the “shrunken log2 fold change” value stood at 0.0878.

With RRIRQRPPRLPRPRPRPGHYPRP, the “shrunken log2 fold change” value was -0.00181.

Consider RRIRYRPPRLPRPRPRPPTYPRP, for which the “shrunken log2 fold change” value was -0.615.

On to RRIRCRPPRLPRPRPRPFGIPRP, for which the “shrunken log2 fold change” value is -0.129.

For RRIRTRPPRLPRPRPRPAKDPRP, the “shrunken log2 fold change” value is -0.399.

With RRIRDRPPRLPRPRPRPEMYPRP, the “shrunken log2 fold change” value stood at 0.363.

With RRIRSRPPRLPRPRPRPKSTPRP, the “shrunken log2 fold change” value was -0.556.

On to RRIRARPPRLPRPRPRPVTLPRP, for which the “shrunken log2 fold change” value was -0.121.

In the case of RRIRHRPPRLPRPRPRPQGGPRP, the “shrunken log2 fold change” value is -0.0982.

On to RRIRSRPPRLPRPRPRPEDAPRP, for which the “shrunken log2 fold change” value is 0.821.

Consider RRIRNRPPRLPRPRPRPGHNPRP, for which the “shrunken log2 fold change” value was -0.64.

RRIRNRPPRLPRPRPRPQCHPRP: the “shrunken log2 fold change” value is -0.42.

For RRIRGRPPRLPRPRPRPHHMPRP, the “shrunken log2 fold change” value is -0.219.

In the case of RRIRNRPPRLPRPRPRPRHDPRP, the “shrunken log2 fold change” value was 0.0353.

As for RRIRIRPPRLPRPRPRPPIPPRP, the “shrunken log2 fold change” value was 0.00551.

For the sequence RRIRSRPPRLPRPRPRPCPLPRP, the “shrunken log2 fold change” value is -0.823.

In the case of RRIRLRPPRLPRPRPRPEPQPRP, the “shrunken log2 fold change” value came to 0.728.

Consider RRIRHRPPRLPRPRPRPCDQPRP, for which the “shrunken log2 fold change” value is -0.000946.

In the case of RRIRKRPPRLPRPRPRPNGIPRP, the “shrunken log2 fold change” value is -0.029.

As to RRIRSRPPRLPRPRPRPSLTPRP, the “shrunken log2 fold change” value is -0.138.

As to RRIRVRPPRLPRPRPRPDQRPRP, the “shrunken log2 fold change” value was 0.128.

As to RRIRRRPPRLPRPRPRPSTNPRP, the “shrunken log2 fold change” value is -0.0966.

For the sequence RRIRVRPPRLPRPRPRPQHNPRP, the “shrunken log2 fold change” value is -0.604.

Consider RRIRPRPPRLPRPRPRPGMKPRP, for which the “shrunken log2 fold change” value was -0.257.

For the sequence RRIRYRPPRLPRPRPRPMVYPRP, the “shrunken log2 fold change” value was -0.00783.

For RRIRMRPPRLPRPRPRPPAYPRP, the “shrunken log2 fold change” value was found to be 0.608.

On to RRIRPRPPRLPRPRPRPWCCPRP, for which the “shrunken log2 fold change” value is -0.0996.

Consider RRIRVRPPRLPRPRPRPHPWPRP, for which the “shrunken log2 fold change” value is 0.0927.

Take RRIRGRPPRLPRPRPRPIKYPRP: the “shrunken log2 fold change” value worked out at 0.00555.

As to RRIRGRPPRLPRPRPRPAYGPRP, the “shrunken log2 fold change” value is -0.0354.

With RRIRIRPPRLPRPRPRPWRKPRP, the “shrunken log2 fold change” value was -0.143.

Consider RRIRYRPPRLPRPRPRPDTKPRP, for which the “shrunken log2 fold change” value was -0.0212.

RRIRMRPPRLPRPRPRPGFGPRP: the “shrunken log2 fold change” value is 0.904.

Regarding RRIRQRPPRLPRPRPRPSVYPRP, the “shrunken log2 fold change” value is -0.643.

Consider RRIRLRPPRLPRPRPRPRAYPRP, for which the “shrunken log2 fold change” value came out at 0.0155.

Consider RRIRARPPRLPRPRPRPIFTPRP, for which the “shrunken log2 fold change” value is 0.165.

Take RRIRHRPPRLPRPRPRPAPDPRP: the “shrunken log2 fold change” value was -0.0192.

With RRIRLRPPRLPRPRPRPWHHPRP, the “shrunken log2 fold change” value is -0.0279.

As to RRIRIRPPRLPRPRPRPDMLPRP, the “shrunken log2 fold change” value is -0.618.

In the case of RRIRNRPPRLPRPRPRPKLLPRP, the “shrunken log2 fold change” value is 0.127.

Take RRIRQRPPRLPRPRPRPCGAPRP: the “shrunken log2 fold change” value amounted to 0.133.

As for RRIRIRPPRLPRPRPRPIYTPRP, the “shrunken log2 fold change” value was -0.728.

With RRIRNRPPRLPRPRPRPTSIPRP, the “shrunken log2 fold change” value was -0.531.

Take RRIRMRPPRLPRPRPRPRYSPRP: the “shrunken log2 fold change” value is -0.342.

For the sequence RRIRQRPPRLPRPRPRPSWFPRP, the “shrunken log2 fold change” value is -0.323.

Regarding RRIRVRPPRLPRPRPRPHNAPRP, the “shrunken log2 fold change” value is -0.164.

On to RRIRPRPPRLPRPRPRPSFWPRP, for which the “shrunken log2 fold change” value amounted to 0.129.

As to RRIRVRPPRLPRPRPRPCGHPRP, the “shrunken log2 fold change” value was determined as 0.0386.

For RRIRFRPPRLPRPRPRPEPLPRP, the “shrunken log2 fold change” value was 0.0513.

For RRIRYRPPRLPRPRPRPHSVPRP, the “shrunken log2 fold change” value is -0.07.

Consider RRIRMRPPRLPRPRPRPCLIPRP, for which the “shrunken log2 fold change” value was -0.0342.

In the case of RRIRSRPPRLPRPRPRPIHPPRP, the “shrunken log2 fold change” value is -0.0819.

Consider RRIRRRPPRLPRPRPRPKQDPRP, for which the “shrunken log2 fold change” value was determined as 0.38.

As for RRIRIRPPRLPRPRPRPMKAPRP, the “shrunken log2 fold change” value was -1.03.

With RRIRRRPPRLPRPRPRPRYWPRP, the “shrunken log2 fold change” value came out at 0.088.

Take RRIRTRPPRLPRPRPRPAMTPRP: the “shrunken log2 fold change” value was 0.126.

Consider RRIRSRPPRLPRPRPRPQLKPRP, for which the “shrunken log2 fold change” value stood at 0.0348.

For RRIRKRPPRLPRPRPRPNPYPRP, the “shrunken log2 fold change” value was -0.384.

Take RRIRCRPPRLPRPRPRPDHHPRP: the “shrunken log2 fold change” value was -0.246.

Regarding RRIRDRPPRLPRPRPRPSANPRP, the “shrunken log2 fold change” value came to 0.119.

As for RRIRTRPPRLPRPRPRPHCSPRP, the “shrunken log2 fold change” value was -0.0966.

Turning to RRIRVRPPRLPRPRPRPDNTPRP, the “shrunken log2 fold change” value was -0.426.

Consider RRIRRRPPRLPRPRPRPNLHPRP, for which the “shrunken log2 fold change” value is -0.288.

For RRIRNRPPRLPRPRPRPWESPRP, the “shrunken log2 fold change” value amounted to 0.291.

Regarding RRIRRRPPRLPRPRPRPQHHPRP, the “shrunken log2 fold change” value is -0.0809.

With RRIRPRPPRLPRPRPRPNTYPRP, the “shrunken log2 fold change” value is -0.67.

In the case of RRIRTRPPRLPRPRPRPRSGPRP, the “shrunken log2 fold change” value was 0.284.

For RRIRCRPPRLPRPRPRPQDSPRP, the “shrunken log2 fold change” value is -0.0482.

In the case of RRIRMRPPRLPRPRPRPQYTPRP, the “shrunken log2 fold change” value was -0.0579.

For the sequence RRIRARPPRLPRPRPRPVQMPRP, the “shrunken log2 fold change” value stood at 0.21.

As for RRIRYRPPRLPRPRPRPDIQPRP, the “shrunken log2 fold change” value is -0.349.

For the sequence RRIRWRPPRLPRPRPRPQPCPRP, the “shrunken log2 fold change” value is 0.179.

Consider RRIRDRPPRLPRPRPRPNDMPRP, for which the “shrunken log2 fold change” value was -0.104.

For RRIRGRPPRLPRPRPRPDCGPRP, the “shrunken log2 fold change” value was 0.879.

Turning to RRIRIRPPRLPRPRPRPQFAPRP, the “shrunken log2 fold change” value was -0.0319.

RRIRSRPPRLPRPRPRPGGTPRP: the “shrunken log2 fold change” value is 0.247.

RRIRDRPPRLPRPRPRPKPIPRP: the “shrunken log2 fold change” value was found to be 0.106.

As to RRIRIRPPRLPRPRPRPVEIPRP, the “shrunken log2 fold change” value was -0.0212.

Take RRIRMRPPRLPRPRPRPGIEPRP: the “shrunken log2 fold change” value turned out to be 2.2.

As for RRIRPRPPRLPRPRPRPYEMPRP, the “shrunken log2 fold change” value was -0.281.

As to RRIRCRPPRLPRPRPRPTAIPRP, the “shrunken log2 fold change” value is -0.273.

Regarding RRIRWRPPRLPRPRPRPIKCPRP, the “shrunken log2 fold change” value was -0.0271.

Turning to RRIRMRPPRLPRPRPRPMDMPRP, the “shrunken log2 fold change” value is 0.482.

For RRIRPRPPRLPRPRPRPNQIPRP, the “shrunken log2 fold change” value was 0.0623.

For RRIRYRPPRLPRPRPRPDWAPRP, the “shrunken log2 fold change” value amounted to 0.0528.

As for RRIRWRPPRLPRPRPRPSDLPRP, the “shrunken log2 fold change” value was -0.175.

With RRIRYRPPRLPRPRPRPVCDPRP, the “shrunken log2 fold change” value is -0.623.

For RRIRTRPPRLPRPRPRPFTNPRP, the “shrunken log2 fold change” value is -0.0559.

As to RRIRQRPPRLPRPRPRPGMYPRP, the “shrunken log2 fold change” value was -0.35.

In the case of RRIRYRPPRLPRPRPRPQLQPRP, the “shrunken log2 fold change” value is -0.137.

With RRIRNRPPRLPRPRPRPHFEPRP, the “shrunken log2 fold change” value was 0.066.

Take RRIRGRPPRLPRPRPRPLKGPRP: the “shrunken log2 fold change” value is -0.117.

Take RRIRWRPPRLPRPRPRPTWKPRP: the “shrunken log2 fold change” value was found to be 0.261.

For the sequence RRIRTRPPRLPRPRPRPSVCPRP, the “shrunken log2 fold change” value is -0.203.

In the case of RRIRCRPPRLPRPRPRPRPSPRP, the “shrunken log2 fold change” value came out at 0.695.

In the case of RRIRHRPPRLPRPRPRPRAMPRP, the “shrunken log2 fold change” value turned out to be 0.592.

Regarding RRIRQRPPRLPRPRPRPNEQPRP, the “shrunken log2 fold change” value was 0.0394.

On to RRIRSRPPRLPRPRPRPYIWPRP, for which the “shrunken log2 fold change” value was -0.108.

On to RRIRTRPPRLPRPRPRPLVYPRP, for which the “shrunken log2 fold change” value was -0.917.

With RRIRARPPRLPRPRPRPRMAPRP, the “shrunken log2 fold change” value is 0.479.

In the case of RRIRLRPPRLPRPRPRPKEDPRP, the “shrunken log2 fold change” value is -0.184.

RRIRRRPPRLPRPRPRPQWCPRP: the “shrunken log2 fold change” value came to 0.00425.

Turning to RRIRKRPPRLPRPRPRPQFRPRP, the “shrunken log2 fold change” value came out at 0.0319.

Consider RRIRFRPPRLPRPRPRPLRWPRP, for which the “shrunken log2 fold change” value amounted to 0.59.

With RRIRQRPPRLPRPRPRPFMVPRP, the “shrunken log2 fold change” value was -0.686.

Regarding RRIRLRPPRLPRPRPRPAFNPRP, the “shrunken log2 fold change” value is -0.189.

RRIRQRPPRLPRPRPRPDGDPRP: the “shrunken log2 fold change” value was -0.0112.

As for RRIRWRPPRLPRPRPRPTAHPRP, the “shrunken log2 fold change” value is 0.306.

As to RRIRQRPPRLPRPRPRPMCQPRP, the “shrunken log2 fold change” value was -0.053.

In the case of RRIRFRPPRLPRPRPRPHWDPRP, the “shrunken log2 fold change” value is -0.21.

With RRIRLRPPRLPRPRPRPAPMPRP, the “shrunken log2 fold change” value amounted to 0.118.

Consider RRIRYRPPRLPRPRPRPKFYPRP, for which the “shrunken log2 fold change” value was 0.0354.
